Consider one substance from publication PMC9322661.

For this assay, the target named is Taxol-stabilized microtubules (porcine brain tubulin) (porcine). The experiment in a line: TIRF single-molecule motility assay.
Chain of Taxol-stabilized microtubules (porcine brain tubulin) (porcine) (P02550 whole entry, chain 1 of 2): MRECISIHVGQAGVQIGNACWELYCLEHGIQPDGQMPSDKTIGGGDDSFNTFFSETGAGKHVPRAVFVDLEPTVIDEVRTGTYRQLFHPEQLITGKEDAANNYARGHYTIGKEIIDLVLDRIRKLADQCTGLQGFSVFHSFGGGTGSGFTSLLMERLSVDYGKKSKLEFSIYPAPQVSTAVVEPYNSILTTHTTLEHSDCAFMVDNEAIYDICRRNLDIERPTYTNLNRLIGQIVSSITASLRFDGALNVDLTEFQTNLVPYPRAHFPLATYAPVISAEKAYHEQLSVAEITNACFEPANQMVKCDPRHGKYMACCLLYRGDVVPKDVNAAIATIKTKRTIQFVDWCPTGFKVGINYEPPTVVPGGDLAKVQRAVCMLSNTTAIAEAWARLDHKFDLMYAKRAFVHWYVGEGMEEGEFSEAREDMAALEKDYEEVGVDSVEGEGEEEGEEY
Chain of Taxol-stabilized microtubules (porcine brain tubulin) (porcine) (P02554 whole entry, chain 2 of 2, further chain): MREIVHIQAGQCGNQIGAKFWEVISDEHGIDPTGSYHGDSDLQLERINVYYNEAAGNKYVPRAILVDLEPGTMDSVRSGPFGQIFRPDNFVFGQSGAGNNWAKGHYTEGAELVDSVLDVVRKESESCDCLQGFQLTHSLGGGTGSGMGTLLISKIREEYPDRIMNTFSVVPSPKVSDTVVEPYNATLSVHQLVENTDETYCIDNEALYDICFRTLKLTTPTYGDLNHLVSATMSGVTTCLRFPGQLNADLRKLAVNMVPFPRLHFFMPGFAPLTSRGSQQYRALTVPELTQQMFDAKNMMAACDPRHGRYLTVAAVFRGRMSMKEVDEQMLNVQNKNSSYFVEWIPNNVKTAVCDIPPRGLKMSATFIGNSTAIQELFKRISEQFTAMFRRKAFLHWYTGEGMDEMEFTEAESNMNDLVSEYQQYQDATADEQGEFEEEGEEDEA

As for “full-length KIF5A(∆exon27)::mSca (from UniProt Q12840 1-1032) (natural protein)”, the landing rate (motors/μm/s/μM) was 8.3.
